According to the DeepSol protein solubility set:

Assay: soluble on expression in E. coli; label from the status in PepcDB or PDB records

Sequence	soluble on expression in E. coli
MEPVFKEPSPKKKRVENPPENAPDAPKKPQLKHESEFLRSIPSSSQYEKSFMHRDTISHVIATKTDFIITASVDGHLKFWKKKHSEGVEFVKHFRCHLSEFSHICANIDGTLLATVCEADKSVKVFDIENFDMINMIKLDFPPKTANWVHQSNDPIAHLAIGAADSGKIIVVDGKATAAPICIKDKLHSTPVKIIEYSQSLDIIVSIDESGMIECWNGERGDFQFPETKLTWEYKLETDLYDFVKAKTIPVCATFDPSGLKLATFAEDRKIRIFNVKTGKLAQLIDETTQKYHCEAKENKNYGLQHMEWSRRLASEKEMDKDKKNSLKYTKICFDQSGNFLLYPTPIGVKVFNLVTNEVSRTIGRDEAIRFVAVSLCNALPDIRQKLQGAAITLETAAADNPTLNRKTDPDPLMVCCALRKNRFYLFTNTEPYNVEDDEGNPSVSGRDVFNERPKKEDLLTALDTEGGEKVLNKEAIIHTSFGDITIRLFGDECPKTVENFCTHSRRGYYNGLTFHRVIKSFMIQTGDPSGKGTGGESIWGEDFEDEFHPRLRHDKPFKVSMANAGGGNTNGSQFFITVCPADWLDGKNTLFGEVTAGMSVVQRINQVSTFERSGRPRESIQIMSISLK	not soluble
MAHHHHHHMNYAAVINGPFSSNNGNNHYSRLGYTPNGYGPQPNTTEQNPQMVPYQTFNSAAGQPVNVYQQIPPTSASRDPRTNIHIGSKLFVGQVPAMTTEEQLRPVFEPYGELLEVKIMRDPLGRSKGSAWVRYETNEMAMNAINALHEKHTVPPQTNPLRVQFATPNSVRHQQLQARYAVELKVPMNQYNFGGQMGGGTQQSGMVMLRSGASPNVVPPISANVGGRYMSAPFGGGPMESSSIMSGPYTSSANCFDGVNSSGNRRDLYSPLEQPQGTAPQLYQQQQQQQRGGFSSPVVTPPSVYNQASSTRQPTARNNNTKSGGGISMGSFESGHGMVNPNSNGAPTMANEMSTLDAGIALWEARNNNGLQGQEPREAAARVRSGERKEE	not soluble
MATNRSRRLRKKLCVDEFQELGFELNLDFKQELDDKAIDAFLDAFLKEAMEANGLGYVGGDDFGLVCLSKRGSVSEEQRAAVEAWLKGRSELTEVTVSPLIDVWY	not soluble
MAHHHHHHMVGAMHDIQVGFLDRCSVFQFTLTCTVLDFQKVAEPQPKSPGSLPSSTRTAPNPNGEEVEKHINKEQYTVRCLGSEAYTEALKNYLDDGCIVRVIGRLKTTEVVDAGKKQPFPCIIVEQGRWSTVSLVHSLRKQRRDWQLQNILTSVATLE	not soluble
TGAITVGNKNNDKLTLWTTPAPSPNCRLNAEKDAKLTLVLTKCGSQILATVSVLAVKGSLAPISGTVQSAHLIIRFDENGVLLNNSFLDPEYWNFRNGDLTEGTAYTNAVGFMPNLSAYPKSHGKTAKSNIVSQVYLNGDKTKPVTLTITLNGTQETGDTTPSAYSMSFSWDWSGHNYINEIFATSSYTFSYIAQE	soluble
MTERFDCHHCNESLFGKKYILREESPYCVVCFETLFANTCEECGKPIGCDCKDLSYKDRHWHEACFHCSQCRNSLVDKPFAAKEDQLLCTDCYSNEYSSKCQECKKTIMPGTRKMEYKGSSWHETCFICHRCQQPIGTKSFIPKDNQNFCVPCYEKQHAMQCVQCKKPITTGGVTYREQPWHKECFVCTACRKQLSGQRFTARDDFAYCLNCFCDLYAKKCAGCTNPISGLGGTKYISFEERQWHNDCFNCKKCSLSLVGRGFLTERDDILCPDCGKDI	soluble
PPYTIVYFPVRGRAEAMRMLLADQGQSWKEEVVTIDTWMQGLLKPTCLYGQLPKFEDGDLTLYQSNAILRHLGRSLGLYGKNQREAAQMDMVNDGVEDLRGKYVTLIYTNYENGKNDYVKALPGHLKPFETLLSQNQGGKAFIVGDQISFADYNLLDLLLIHQVLAPGCLDNFPLLSAYVARLSARPKIKAFLSSPEHVNRPINGNGKQ	soluble
MAKNKVLGRGLADIFPEINEVYEQGLYERANRVVELGIDEVMPNPYQPRKVFSEDSLEELAQSIKEHGLLQPVLVVSENGRYHLIAGERRLRASKLAKMPTIKAIVVDIEQEKMREVALIENIQREDLNPLELARSYKELLESYQMTQEELSKIVKKSRAHVANIMRLLTLSSKVQNALLEEKITSGHAKVLVGLDGEKQELILNSIIGQKLSVRQTEDLARDFKINANFDNKKHGFKQTQTLIAGDELERLNQSLWDHYKLKAALKGNKIVLRCYENSLLEAFMKKMMS	not soluble
GYTLWNDQIVKDEEVKIDKEDRGYQFGDGVYEVVKVYNGEMFTVNEHIDRLYASAEKIRITIPYTKDKFHQLLHELVEKNELNTGHIYFQVTRGTSPRAHQFPENTVKPVIIGYTKENPRPLENLEKGVKATFVEDIRWLRCDIKSLNLLGAVLAKQEAHEKGCYEAILHRNNTVTEGSSSNVFGIKDGILYTHPANNMIAKGITRDVVIACANEINMPVKEIPFTTHEALKMDELFVTSTTSEITPVIEIDGKLIRDGKVGEWTRKLQKQFETKIPKPLHI	soluble
MAVIVLAGTIGAGKSSLTALIANRLGSEAFYESVDDNEVLPLFYAEPEKYAFLLQIYFLNKRFDSIKQALTHENNVLDRSIYEDSLLFHLNADLGRANETEVKVYDDLLQNMLQELPYAAHKKRPDLLVHIRISFPKMLERIKKRGRPYEQIETDPTLYDYYQMLNERYDQWYEDYDESPKIQIDGDKYDFVEDPEACQYVLALIEKKIEELER	not soluble
RKWAEDNEVQNCMACGKGFSVTVRRHHCRQCGNIFCAECSAKNALTPSSKKPVRVCDACFNDLQG	soluble
QIQLVQSGPELKKPGETVRISCKASDYSFMTSGMQWVQQMPGKGLKWIGWLNTQSGVPEYAEDFKGRFAFSLETSATTAYLQINNLKNEDTATYFCATWGGNSAYWGQGTTLTVSSAKTTPPSVYPLAPGSAAQTNSMVTLGCLVKGYFPEPVTVTWNSGSLSSGVHTFPAVLQSDLYTLSSSVTVPSSTWPSETVTCNVAHPASSTKVDKKIVPRDC	soluble
MGSDKIHHHHHHMDFIEVYPNAIPDELCDRLIETVNTHPGVIDGITGHGVDLEKKISRDITMDNFQELLPLRNELLNYTLKHSAQYFEKYALGLMGAVAVTLADEQGKPQTLTPDNFDTLGRHRVQPLVQYLYRSGTINIQHYQQGKGGYPHWHSEQFPQMGHNEALHRVVLYMFYLNDVEEGGETEFFYQQRKIKPKKGTMVIAPAGFTHSHRGNMPISGDKYIATSWVMFNRAEKLYAPVG	not soluble
MAHHHHHHMIHEMCFQELSDSILPAHNGEVALMLATGSPFTDAMTTAAPQQDVWGSSLFSLPELGTDLHSEVSQQNIEKSGSNLNCELQTASHVCNLAPVTFKEEQNKTRITESNTTFGPTPSMHCLSFGSVNAQSNIPSIANSTPNPLACSMVCTSQAPQLSFSSLMSIGNTTVPANSSSTTNGLAYQQASPVATVSNGIPAFFTTAQNGGNVVMFAPSNSQQTLCIPTPVPTMIPYYVIAPPQHTVEVNGTMAYSSLSTAPQSMPPVMCGPWTTNTGSVVGSGAPTPVSVSSASGVMPQTFVTSVTTKPSQPVSFSFPSGDSNQNSASASSIIPLCADGSGNQKAPPRGSPPSYDSLRIQITKRRQPSGRQRSGTNVHGSLQGICSYYSYNLSAALKQYEHPDFHVAKPVEQVLPVFVQMFPCELRDRTIIVLNRVVEATCGPDIATVVGIEPRSETSFITLIRTNDVWHLIHKLRCRVLMDRHGFWYAENMEQYLRLKEYCESVRRLPQQIRHFQTDGLPCMPLVVELSRSVNAASVTSLPAPPSFDEVAPIATMERHGRVATLTGSNEDGSSSPRETGEVINAAAVPLPSGVGRV	not soluble
KQKKMQAMIVTSRPDRVIRMIHHKLHRGVTIINDAEGTYNHEHKAILVTIITRAEFNDFKYIMKKTDKNAFVSVADNVNIIGRFVEED	not soluble
MRIDPFKLAHWMNARKYTAAQTADLAGLPLDDLRRLLGDEANEPDPAAATALAEALSVEPSQLAADAHRNLTVVHKSAEEMHASRRPIQRDGIHFYNYYTLAAPEGRVAPVVLDILCPSDRLPALNNGHLEPAITVNLGPGDINGRWGEEITPQTWRVLHANHGGDRWITGDSYVEPSYCPHSYSLAGDAPARIVSYTAQSNISPLMTEANNWSTGAFEEALKALSGKVSAGSVLDLFLARRAHTRTSAAEAAGVPPADLEAALRSPASETGLTVLRTLGRALGFDYRVLLPADDQHDGVGKTWTTIEDSRRSRRTFGTYEAASMASAAHLPDLVGSFLRVDADGRGADLIDHAENHYVVTEGRLTLEWDGPDGPASVELEPDGSAWTGPFVRHRWHGTGTVLKFGSGAHLGYQDWLELTNTFEPAATLRRGRRDLAGWGYDN	soluble
MNDPMGETGFSRESAPEIVFSETDMAAAEQLMHLSEEETVSCSSSTGGDCGGGGGDKIKHEYVSSRIGNELNDGVRGNSILGVEKKRKRTVMKEKKFRSLESIYKGTKEIRD	not soluble
MASRETILDVLAKLEECKETLNNSLNYDEAANSNGSSTFQDQSEIKIEHIAPNLVFENGTVPQEQSNSFQWYEEEVSNDACVSSNEYSGVKLCPFNIGFKSYNTPPDQMQQLDKSISDNMACRMNVDFSGIDRLIQHGSEDMRTVGYGMRGMMKLLQIQHEKLMGKKPDDVTTGLKASLVPARFLKEKTVIVRNLTDDADINVNKVFGQLTAQSSSLKNIVINAANVWIKNVVPDEQRKLYSTSIKPQQPQITFPAQLLNGPAGLLVRCLSVTGGDNSSNAVNISLLFKQHVSNLFNHARSKSGITNSRKRKQQSEDYSYN	not soluble
MGSSHHHHHHGKTIFVIVPTNEEQVAFLEALAKQDELNFDWQNPPTEPGQPVVILIPSDMVEWFLEMLKAKGIPFTVYVEEGGSENLYFQGGGGGGVRYVQRPWFSPLGFMASSPTAYAPMMTCIALALIFPFRYQISEYFERQRDGVHVELRRKAVKYYAEMERMHRRQALVNLESIQDDNAPHRLSAVLSVESIQAGHLDQEYNYWYAHERDAIRAEKLMMEIRELKAKMPADSA	not soluble
MVVSYSDSTPFGERISDSLKETQKLHTMQLNLGKVCNLACRHCHVEAGPNRREQMSQEVMKKALELFVRHGFETLDITGGAPEMNPHFEWLIHEGSKVASRLIVRTNLVILKESPWEHLAEFYAKHKVELVASLPEVSEEEVDRVRGRGVYGDSIEVIKRLNALGYGKNPDLKLDFVYNPSGPFLPPRVMELERLYKEQLFEKEEIFFHRLLSMNNIPIGRFRDSLERSGELLEYETLLRTHFNPSATPHLMCRSQISVSYEGRIYDCDFNQMLSLEAQGAKSLEEMLIQKSLKRRVVFGEHCYACTAGLGSSCQGVIAPEPL	not soluble
MGSDKIHHHHHHMSREINAGGHHFLYGGISRGVHYWDNKDFSEQSLRLSFGHQNRSVTRSFGTVPFVGQNLLGGSRYNFAGGFNADFSRRLGERWRLTLNAGNMWKHYQEDRTAARYGSHMPLAGATLMYSAPKDRLLYGGADWPHDMTKEAEQASVRKGLRVGAVKTFDGGLGLRANLRYTRRTFDAPGTIVYRFPRKDHEYQANLSLRHDKISWKGFTPQLNFRYLKIGSNMKSFYTRKNTQIFMSVEKDFK	not soluble
GMNQRDVILDCEKKLLTAIQNNDVESLEVLLHDDLLFIIPSGETVTKETDIAAYSSGKIALRAVVPSDYIIRIIHDTVVVSVNIEIKGEYMEHTLDNTFRYLRVWKLFDGNWKVIAGSCTAIG	soluble
GPGSMSSERYVDGDLGEPFNSAEPLTLPVVVQLLRGRRDTSLDHPASRLIEKTCRQVELMQETCADECRVQRVMETRLRLVNKNNRQQMNAHLGNFVVGEDGFATLPPESDDFLDTAEEEAMKMFEVVALGTLQPKTADEARELIPSLGRFEPADLNKVLEMLDSL	not soluble
